# In patent publication US20230105714A1:
# B1: antibody 19416 (antibody, V domains shown)
# VH: QVQLVESGPGLVKPSQTLSLTCTVSGGSINSGGYYWSWIRQHPGKGLEWIGYIYYSGSIYYNPSLRSRLTISVDTSKNQFSLKLSSVTAADTAVYYCATPYYYGSGSYGDYWGQGTLVTVSS
# VL: DIQMTQSPATLSLSPGERATLSCRASQSVNNYLAWYQQKPGQAPRLLIYDASNRATGIPARFSGSGSGTDFTLTISSLEPEDFAVYYCQQRSNWPITFGQGTRLEIK
# How the values were obtained:
# [1] = molecular target: cynomolgus TIM-3 ECD Fc fusion (made in-house) (cynomolgus monkey (Macaca fascicularis); human); assay: SPR (IBIS MX96), TIM-3 ECD-Fc captured, Fab injected 1-100 nM, 1:1 fit
# [2] = molecular target: cynomolgus TIM-3 Fc fusion antigen (Sino Biologicals) (cynomolgus monkey); assay: ELISA, EC50 on cynomolgus TIM-3 against EC50 on human TIM-3
# [3] = molecular target: cynomolgus TIM-3 Fc fusion antigen (Sino Biologicals) (cynomolgus monkey); assay: ELISA, TIM-3 Fc fusion coated at 1 ug/ml, antibody titrated from 1000 nM
# Sequence of cynomolgus TIM-3 Fc fusion antigen (Sino Biologicals) (cynomolgus monkey) (chain, as listed by the source limits assumed): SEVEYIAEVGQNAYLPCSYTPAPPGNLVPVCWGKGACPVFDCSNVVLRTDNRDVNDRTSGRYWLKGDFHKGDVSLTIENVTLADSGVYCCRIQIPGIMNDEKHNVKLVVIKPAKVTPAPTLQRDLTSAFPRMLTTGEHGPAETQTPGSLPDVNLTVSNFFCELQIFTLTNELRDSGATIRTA
# Sequence of cynomolgus TIM-3 ECD Fc fusion (made in-house) (cynomolgus monkey (Macaca fascicularis); human) (chain, as listed by the source limits assumed): as above
Molecule,Kd [1],Ratio Cynomolgus/Human EC50 [2],EC50 [3]
Fab fragment of 18564 ABTIM3 (reference analogue),25 nM,,
B1,,47,9.42 nM
